What was measured:
[1] = target: T1, human C1q (Quidel) (human, UniProt P02745 23-245; P02746 28-253; P02747 29-245); experiment: SPR (BIAcore 3000), IgG immobilised, soluble human C1q, equilibrium fit
T1 construct: Bought protein (Quidel, CA); In the CDC assays C1q came with normal human serum complement; also called complement protein C1q; soluble human C1q
Protocol: Protein concentrations were calculated by the bicinchoninic acid methods. The different human IgG1s were coupled to the dextran matrix of a CM5 sensor chip (Pharmacia Biosensor) using an Amine Coupling Kit as described (Johnsson et al., 1991, Anal. Biochem. 198: 268-77) at a surface density of between 4830 and 9221 RU. Excess reactive esters were quenched by injection of 70 μl of 1.0 M ethanolamine hydrochloride, pH 8.5. […] Dilutions and binding experiments were carried out in 50 mM HBS buffer containing 0.01 M HEPES pH 7.4, 0.15 M NaCl, 3 mM EDTA and 0.005% P-20. Data were collected for about […], and two 1-min pulse of 1M NaCl/50 mM NaOH were used to regenerate the surfaces. Human C1q was allowed to flow over an uncoated cell, and the sensorgrams from these blank runs subtracted from those obtained with IgG1-coupled chips.

[2] = target: T2, human EphA2-Fc (human, UniProt P29317 25-534, limits assumed); experiment: KinExA, solution equilibrium titration with human EphA2-Fc
T2 construct: not shown: Fc part; origin and limits not described
Protocol: Protein concentrations were calculated by the BCA method. […] Coated beads were then separated from unreacted EphA2-Fc using a gentle pulse spin and blocked for approximately 2 h at room temperature with 1 M Tris, pH 8.0, bovine serum albumin 10 mg/mL. Beads were then resuspended in 30 mL of run buffer (PBS, pH 7.4-0.02% NaN₃) and packed into a column. […] The amount of free IgG in the samples was derived from the fluorescence signal obtained after the passing of Cy5-labeled goat anti-human IgG F(ab′)₂ (typically 0.5-2 μg/ml; Jackson ImmunoResearch Laboratories, West Grove, Pa.) through the column. Dissociation constants (KDs) were determined by fitting the individual equilibrium titration data to a 1:1 binding model using the KinExA Pro 1.0.3. software.

[3] = target: T3, FLAG-tagged extracellular domain of human FcγRIIIA (F158 allotype) (human, UniProt P08637 17-208); experiment: SPR (BIAcore 3000), IgG immobilised, soluble FLAG-tagged human FcγRIIIA, equilibrium fit
T3 construct: extracellular domain; Secreted from HEK 293 cells, purified on anti-FLAG M2 agarose; also called FLAG-tagged FcγRIIIA; Flag-tagged Human FcγRIIIA; not shown: FLAG tag
Protocol: Protein concentrations were calculated by the bicinchoninic acid methods. The different human IgG1s were coupled to the dextran matrix of a CM5 sensor chip (Pharmacia Biosensor) using an Amine Coupling Kit as described (Johnsson et al., 1991, Anal. Biochem. 198: 268-77) at a surface density of between 7765 and 8385 RU. Excess reactive esters were quenched by injection of 70 μl of 1.0 M ethanolamine hydrochloride, pH 8.5. […] Dilutions and binding experiments were carried out in 50 mM HBS buffer containing 0.01 M HEPES pH 7.4, 0.15 M NaCl, 3 mM EDTA and 0.005% P-20. Data were collected for about 50 min, and one 30 sec pulse of 5 mM HCl was used to regenerate the surfaces. Flag-tagged human FcγRIIIA was allowed to flow over an uncoated cell, and the sensorgrams from these blank runs subtracted from those obtained with IgG1-coupled chips.

T1 sequence (P02745 23-245 limits assumed, chain 1 of 3): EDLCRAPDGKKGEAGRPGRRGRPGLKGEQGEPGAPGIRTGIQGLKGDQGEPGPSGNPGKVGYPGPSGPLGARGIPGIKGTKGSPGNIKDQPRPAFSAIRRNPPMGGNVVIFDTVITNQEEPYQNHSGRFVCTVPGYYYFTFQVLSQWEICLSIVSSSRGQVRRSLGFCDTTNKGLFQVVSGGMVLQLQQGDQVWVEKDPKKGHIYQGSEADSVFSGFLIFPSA
T1 sequence (P02746 28-253 limits assumed, chain 2 of 3): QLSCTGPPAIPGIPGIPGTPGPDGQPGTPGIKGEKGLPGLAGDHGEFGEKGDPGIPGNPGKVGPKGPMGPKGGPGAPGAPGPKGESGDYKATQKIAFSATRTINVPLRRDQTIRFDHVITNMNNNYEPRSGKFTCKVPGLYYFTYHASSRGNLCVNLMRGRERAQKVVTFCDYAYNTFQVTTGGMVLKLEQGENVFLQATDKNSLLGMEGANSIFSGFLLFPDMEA
T1 sequence (P02747 29-245 limits assumed, chain 3 of 3): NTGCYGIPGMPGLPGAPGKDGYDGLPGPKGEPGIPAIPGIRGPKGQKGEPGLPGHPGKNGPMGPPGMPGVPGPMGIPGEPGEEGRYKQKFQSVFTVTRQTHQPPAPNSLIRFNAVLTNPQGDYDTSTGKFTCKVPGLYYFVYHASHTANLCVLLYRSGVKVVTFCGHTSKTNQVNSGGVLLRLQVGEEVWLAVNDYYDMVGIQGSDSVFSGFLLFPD
T2 sequence (P29317 25-534 limits assumed): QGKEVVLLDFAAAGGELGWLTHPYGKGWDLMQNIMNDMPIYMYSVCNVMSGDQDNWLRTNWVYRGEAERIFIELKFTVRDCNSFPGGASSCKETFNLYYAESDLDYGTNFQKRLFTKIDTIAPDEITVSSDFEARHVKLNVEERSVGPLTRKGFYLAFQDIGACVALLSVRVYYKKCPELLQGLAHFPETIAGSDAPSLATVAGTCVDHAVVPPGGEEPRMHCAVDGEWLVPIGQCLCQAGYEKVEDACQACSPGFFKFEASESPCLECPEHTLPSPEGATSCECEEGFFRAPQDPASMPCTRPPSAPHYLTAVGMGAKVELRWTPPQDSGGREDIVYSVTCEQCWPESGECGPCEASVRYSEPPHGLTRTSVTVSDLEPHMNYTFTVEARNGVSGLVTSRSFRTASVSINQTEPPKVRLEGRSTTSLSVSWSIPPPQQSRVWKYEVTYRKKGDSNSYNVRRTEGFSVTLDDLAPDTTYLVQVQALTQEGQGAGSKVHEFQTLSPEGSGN
T3 sequence (P08637 17-208): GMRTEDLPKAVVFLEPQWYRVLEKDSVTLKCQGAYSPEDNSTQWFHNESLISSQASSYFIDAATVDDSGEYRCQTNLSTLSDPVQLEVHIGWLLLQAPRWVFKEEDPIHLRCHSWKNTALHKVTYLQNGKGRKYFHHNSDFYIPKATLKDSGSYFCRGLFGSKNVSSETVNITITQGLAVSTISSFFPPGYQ

Binder | Kd [1] [nM] | Kd [2] [nM] | Kd [3] [nM]
mAb 12G3H11 (wild type hinge), human anti-human EphA2 IgG1 (antibody, domain: CH1;domain: lower hinge, CH2, CH3; Human IgG1/κ from HEK 293 cells; also called Wild type (12G3H11); not shown: human κ chain constant region) heavy: not shown light: DIQMTQSPSSLSASVGDRVTITCRASQSISNNLHWYQQKPGKAPKLLIKYAFQSISGVPSRFSGSGSGTDFTFTISSLQPEDFATYYCQQANSWPLTFGGGTKVEIK | 89 | 0.0011 | 6050
12G3H11 Fc variant 5-GGG Insert Low (antibody, human IgG1, domain: CH1;domain: lower hinge, CH2, CH3; Human IgG1/κ; not shown: human κ chain constant region) heavy: not shown light: DIQMTQSPSSLSASVGDRVTITCRASQSISNNLHWYQQKPGKAPKLLIKYAFQSISGVPSRFSGSGSGTDFTFTISSLQPEDFATYYCQQANSWPLTFGGGTKVEIK | 282 | 0.0008 | 
12G3H11 Fc variant 13-2 AA Delete Mid (antibody, human IgG1, domain: CH1;domain: lower hinge, CH2, CH3; Human IgG1/κ; not shown: human κ chain constant region) heavy: not shown light: DIQMTQSPSSLSASVGDRVTITCRASQSISNNLHWYQQKPGKAPKLLIKYAFQSISGVPSRFSGSGSGTDFTFTISSLQPEDFATYYCQQANSWPLTFGGGTKVEIK |  | 0.0017 | 
12G3H11 Fc variant 1-CD Invert (antibody, human IgG1, domain: CH1;domain: lower hinge, CH2, CH3; Human IgG1/κ; not shown: human κ chain constant region) heavy: not shown light: DIQMTQSPSSLSASVGDRVTITCRASQSISNNLHWYQQKPGKAPKLLIKYAFQSISGVPSRFSGSGSGTDFTFTISSLQPEDFATYYCQQANSWPLTFGGGTKVEIK | 92 |  | 
12G3H11 Fc variant 19-PP to WW Low (antibody, human IgG1, domain: CH1;domain: lower hinge, CH2, CH3; Human IgG1/κ; not shown: human κ chain constant region) heavy: not shown light: DIQMTQSPSSLSASVGDRVTITCRASQSISNNLHWYQQKPGKAPKLLIKYAFQSISGVPSRFSGSGSGTDFTFTISSLQPEDFATYYCQQANSWPLTFGGGTKVEIK | 274 |  | 
12G3H11 Fc variant 18-EPKS to PPPP (antibody, human IgG1, domain: CH1;domain: lower hinge, CH2, CH3; Human IgG1/κ; not shown: human κ chain constant region) heavy: not shown light: DIQMTQSPSSLSASVGDRVTITCRASQSISNNLHWYQQKPGKAPKLLIKYAFQSISGVPSRFSGSGSGTDFTFTISSLQPEDFATYYCQQANSWPLTFGGGTKVEIK | 75 | 0.0015 | 
12G3H11 Fc variant 14-T to C Middle (antibody, human IgG1, domain: CH1;domain: lower hinge, CH2, CH3; Human IgG1/κ; not shown: human κ chain constant region) heavy: not shown light: DIQMTQSPSSLSASVGDRVTITCRASQSISNNLHWYQQKPGKAPKLLIKYAFQSISGVPSRFSGSGSGTDFTFTISSLQPEDFATYYCQQANSWPLTFGGGTKVEIK |  | 0.0072 | 
12G3H11 Fc variant 6-GGG Insert High (antibody, human IgG1, domain: CH1;domain: lower hinge, CH2, CH3; Human IgG1/κ; not shown: human κ chain constant region) heavy: not shown light: DIQMTQSPSSLSASVGDRVTITCRASQSISNNLHWYQQKPGKAPKLLIKYAFQSISGVPSRFSGSGSGTDFTFTISSLQPEDFATYYCQQANSWPLTFGGGTKVEIK |  | 0.0027 | 
12G3H11 Fc variant 20-KT to WW Mid (antibody, human IgG1, domain: CH1;domain: lower hinge, CH2, CH3; Human IgG1/κ; not shown: human κ chain constant region) heavy: not shown light: DIQMTQSPSSLSASVGDRVTITCRASQSISNNLHWYQQKPGKAPKLLIKYAFQSISGVPSRFSGSGSGTDFTFTISSLQPEDFATYYCQQANSWPLTFGGGTKVEIK | 61 |  | 
12G3H11 Fc variant 8-PP to GG Low (antibody, human IgG1, domain: CH1;domain: lower hinge, CH2, CH3; Human IgG1/κ; not shown: human κ chain constant region) heavy: not shown light: DIQMTQSPSSLSASVGDRVTITCRASQSISNNLHWYQQKPGKAPKLLIKYAFQSISGVPSRFSGSGSGTDFTFTISSLQPEDFATYYCQQANSWPLTFGGGTKVEIK | 155 |  | 6400
12G3H11 Fc variant 17-DKTHT to PPPPP (antibody, human IgG1, domain: CH1;domain: lower hinge, CH2, CH3; Human IgG1/κ; not shown: human κ chain constant region) heavy: not shown light: DIQMTQSPSSLSASVGDRVTITCRASQSISNNLHWYQQKPGKAPKLLIKYAFQSISGVPSRFSGSGSGTDFTFTISSLQPEDFATYYCQQANSWPLTFGGGTKVEIK | 91 |  | 

Reference: US20140171623A1 (published 2014)
